Measured values published in the supplement of paper PMC12042874.
± gives the uncertainty stated by the source.

Assay: amyloid nucleation score (Sup35N fusion, yeast selection) (log enrichment); library NNK2; higher = more nucleation; inactive = no reads after selection
Summary of the method: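 Peptides of 20 random codons fused to Sup35N were expressed in psi-negative yeast, induced 24 hours with 100 μM copper sulfate, then grown 7 days at 30°C on medium lacking adenine and uracil. Input and output plasmid inserts were Illumina-sequenced. Nucleation score is the DiMSum log enrichment of output over input reads, centred on the mode score of non-aggregating sequences, excluding sequences with under 100 input reads. Random libraries had three technical output replicates.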
Work on FRVKLTLRFLNITECCLDYL yielded an amyloid nucleation score of 3.29 ± 0.095. Substance CLKAFIWLRRLEGQI has an amyloid nucleation score of 0.082 ± 1.1. RTVYYHQFPGSGFVYVSGFS showed an amyloid nucleation score of -0.324 ± 1.1. In the case of TRGNM, the amyloid nucleation score is reported as 0.63 ± 0.39. Substance REALDHWVDRVTVRWVRICI has an amyloid nucleation score of -0.474 ± 0.35. Work on RWYRRCLYT yielded an amyloid nucleation score of 0.162 ± 0.37. TMLFRRFYSFMSTL gave an amyloid nucleation score of -0.053 ± 1. With NMMISCVNTLADDVFRGGFV the amyloid nucleation score was -1.33 ± 0.31. For MSPNLIMMHHCH, the amyloid nucleation score was 0.094 ± 0.41. For RNSIYCTND, the amyloid nucleation score was -0.679 ± 0.47. With KEPYHNYI the amyloid nucleation score was 0.179 ± 0.56. With RLCAVITMVEVIYFSYYVWF the amyloid nucleation score was 0.013 ± 0.55. For SGLCSCTVACVGFVHFDARV, the amyloid nucleation score was 5.38 ± 0.084. For FLLCIRLRVNNNVRNN, the amyloid nucleation score was -0.763 ± 1.1. For HWLTKISGTTPELYPRERVV, the amyloid nucleation score was 0.071 ± 0.25. For LVKNSIKRGYL, the amyloid nucleation score was “inactive”. In the case of LIRKFRVVVMFSYVQVLPVI, the amyloid nucleation score is reported as 0.173 ± 1.1. LLKARLLRSHLWVG gave an amyloid nucleation score of 0.057 ± 0.43. For MGSAS, the amyloid nucleation score was 0.682 ± 0.34. Substance LKAQRFWTNNLSLEANSHRK has an amyloid nucleation score of -0.573 ± 1.1. FKFLADVVPWFSSRWSHLMM gave an amyloid nucleation score of -0.867 ± 0.37. For GSARCNTSFCCQQVYFYGCG, the amyloid nucleation score was 8.486 ± 0.064. RTVGLSHIIICN showed an amyloid nucleation score of 0.089 ± 0.5. MRTKGIRQADVFCESYRFNT gave an amyloid nucleation score of -0.029 ± 0.65. Substance DFWFSGDFK has an amyloid nucleation score of -0.778 ± 0.44. NFTSFAYFELEDALWSWRRL showed an amyloid nucleation score of 1.16 ± 0.35. In the case of CRVALSVVYHTINEKQWYRV, the amyloid nucleation score is reported as -0.988 ± 0.28. Work on NNWYQTGSVAEASIEPSSMQ yielded an amyloid nucleation score of 1.6 ± 0.41. VCHAGTWLQSGRTRYSIVRN showed an amyloid nucleation score of 3.51 ± 0.12. In the case of LVWTVPTGVLFRHGC, the amyloid nucleation score is reported as 1.57 ± 0.24. For FSVRLISFRSSLLLMSQDLL, the amyloid nucleation score was 0.138 ± 1.1. VGCCVQGNLYSSFLAMFVA gave an amyloid nucleation score of 7.352 ± 0.028. VAQVWLSNVVMYLRRAENLT gave an amyloid nucleation score of 0.214 ± 0.26. Work on SQLVMHYKQVC yielded an amyloid nucleation score of 1.82 ± 0.14. Substance GMTVNYRRMVQNQRMFGPGI has an amyloid nucleation score of -0.42 ± 0.37. For WLMKINRT, the amyloid nucleation score was 0.129 ± 0.26. Work on FGMRTGWREGGESCSTHERG yielded an amyloid nucleation score of 1.14 ± 0.38. Work on RSSTLNRRKNKGGSTNVDCL yielded an amyloid nucleation score of 0.355 ± 0.56. Work on RVQVPLGRAGTRISRSGKIW yielded an amyloid nucleation score of 0.805 ± 0.43. For LWRGRIFLICFRSRDSNMCL, the amyloid nucleation score was “inactive”. Work on QTPIGK yielded an amyloid nucleation score of -0.66 ± 1.1. Work on CIFWLDYATFDTGLSLYMCE yielded an amyloid nucleation score of -0.094 ± 1. YRSAYFMFTVDHFGLELFFL showed an amyloid nucleation score of 2.45 ± 0.12. Substance CSLVAPGTYYYGEWFPGQMS has an amyloid nucleation score of -0.66 ± 0.29. In the case of SYFMTLIVPGRLLWIDLEGV, the amyloid nucleation score is reported as -0.823 ± 0.63. Work on WFIWNVENR yielded an amyloid nucleation score of 7.15 ± 0.08. In the case of LMSFGDLCIHLGFGSCFCLM, the amyloid nucleation score is reported as -0.631 ± 0.39. With FFLSRFLV the amyloid nucleation score was -0.27 ± 0.79. SACVLCFYQIFFYRVDCTGG showed an amyloid nucleation score of 6.414 ± 0.052. MLSTTEVCVGPDRD gave an amyloid nucleation score of 3.89 ± 0.088. In the case of SMGLSC, the amyloid nucleation score is reported as “inactive”. For FSVFTD, the amyloid nucleation score was -0.678 ± 0.61. GTSMCRELNVHNAWRGIHMG showed an amyloid nucleation score of 0.615 ± 0.29. Work on GLYRGTLVYKTYVLGNNKPL yielded an amyloid nucleation score of -1.33 ± 1.1. With LGFLAEELCMSMMGIVDVPE the amyloid nucleation score was “inactive”. DVVMG gave an amyloid nucleation score of 0.701 ± 0.51. Substance FFSLSQQYSRSVIVYAKLHL has an amyloid nucleation score of -0.98 ± 0.54. Work on FAEFKVQIYLSWLYPEIPVN yielded an amyloid nucleation score of -0.455 ± 1.1. With KFFMPTYN the amyloid nucleation score was 1.58 ± 0.17. DYGEGLPNSMCCLVSFQ gave an amyloid nucleation score of 0.057 ± 1.1. In the case of GICTWNFV, the amyloid nucleation score is reported as “inactive”. With IENRLWIWSLH the amyloid nucleation score was 0.673 ± 0.32. In the case of TTCDNEREGTLKYVNVCCNL, the amyloid nucleation score is reported as 5.42 ± 0.045. In the case of VGIEEVIH, the amyloid nucleation score is reported as -0.249 ± 0.23. With RSMDPCRLLSELIRRT the amyloid nucleation score was 0.938 ± 0.32. In the case of CSIVVNQARCDGSCNYRKVM, the amyloid nucleation score is reported as 9.731 ± 0.055. Work on PNTSKGGDGYSTWGTSQASS yielded an amyloid nucleation score of 0.03 ± 0.46. For CRGTQALSYSLS, the amyloid nucleation score was -0.017 ± 0.76. Substance LVNNGRVLSCYICV has an amyloid nucleation score of 9.171 ± 0.056. PVWKVERRNSHLLKDIGNSI showed an amyloid nucleation score of 0.325 ± 0.57. Work on LSPTYRFGTTSSWGINGRDT yielded an amyloid nucleation score of 0.716 ± 0.24. Work on VMGGDVYTAFTDAEDVDSWG yielded an amyloid nucleation score of 0.398 ± 0.22. PLLFIMANFCLVVLHVSFYN showed an amyloid nucleation score of -0.639 ± 1. With AWFMCSFECVTRSVKHALR the amyloid nucleation score was 0.523 ± 0.64. With FFVDMSYPGSWNICYLTRFC the amyloid nucleation score was “inactive”. HIMSIDVPSNLSLQFIMVGY showed an amyloid nucleation score of 0.306 ± 0.64. FWRDLPAQWTRPKAENLVLK showed an amyloid nucleation score of 1.23 ± 0.32. With RVLKLCRLCHFKYLTSEAGV the amyloid nucleation score was -0.309 ± 0.34. GVVWKYRIFPWTFPHNFFHL showed an amyloid nucleation score of -0.665 ± 0.39. Work on LSWWIHVTVWFPFQVKTGYL yielded an amyloid nucleation score of -0.904 ± 0.78. SQHGVKNLSSRFESLIA showed an amyloid nucleation score of -0.197 ± 0.79. In the case of MFAFMNFRRTIVVYEVWGSY, the amyloid nucleation score is reported as “inactive”. In the case of DMCLW, the amyloid nucleation score is reported as -0.625 ± 0.33. Work on NDPGYLTTYI yielded an amyloid nucleation score of -0.418 ± 0.27. NLNYLVLTYDVSVWNVYVVL showed an amyloid nucleation score of 8.17 ± 0.046. SRIEHMACLRRP showed an amyloid nucleation score of 0.496 ± 0.66.
